As usually defined, the stoichiometry N is the number of molecules, sites or subunits per partner or assembly.

Where two headings read alike, the source gives them in different places.

In assay [1] the target is GFP-G3BP1(ΔRG). Briefly: SEC. A general note: Size exclusion chromatography separates by hydrodynamic size, large species first.
Assay [2] deals with GFP-G3BP1(ΔRG).

On to GFP-G3BP1(ΔRG) (domain or fragment), for which the stoichiometry N in the assay with GFP-G3BP1(ΔRG) [1] and with GFP-G3BP1(ΔRG) [2] was 2 throughout.

Source of the values: article PMC7181197.
